Primed or numbered codes have the meaning given here. Where no end group is shown, it is not given here. [ ]: non-standard residue; d: D form. The star is where a group is joined. Biotin = O=C1N[C@H]2[C@H](CS[C@H]2CCCCC(=O)*)N1; Lys(Me3) = C[N+](C)(C)CCCC[C@H](N)C(=O)O; PEG4′ = not defined here
T1: GLP2R (human, UniProt O95838 1-553)
T1 construct: whole, on cells
T1 sequence (looked up): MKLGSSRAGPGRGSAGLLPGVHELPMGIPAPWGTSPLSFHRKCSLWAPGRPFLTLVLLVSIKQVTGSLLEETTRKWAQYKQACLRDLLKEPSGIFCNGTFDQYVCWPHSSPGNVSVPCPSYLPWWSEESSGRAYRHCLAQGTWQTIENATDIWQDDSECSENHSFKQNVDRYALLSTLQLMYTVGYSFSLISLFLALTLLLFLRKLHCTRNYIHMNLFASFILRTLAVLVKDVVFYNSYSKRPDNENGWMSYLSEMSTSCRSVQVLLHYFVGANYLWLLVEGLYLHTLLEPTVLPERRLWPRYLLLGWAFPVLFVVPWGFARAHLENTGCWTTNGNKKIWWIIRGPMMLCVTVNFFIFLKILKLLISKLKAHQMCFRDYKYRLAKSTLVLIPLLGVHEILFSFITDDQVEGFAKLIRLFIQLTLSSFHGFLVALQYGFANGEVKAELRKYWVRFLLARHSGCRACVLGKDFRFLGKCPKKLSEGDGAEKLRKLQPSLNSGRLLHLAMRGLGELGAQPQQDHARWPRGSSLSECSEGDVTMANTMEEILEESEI

T2: EDN2 (human, UniProt P20800 49-69)
T2 construct: whole, on cells; Secreted targets were tethered to the plasma membrane
T2 chain (looked up): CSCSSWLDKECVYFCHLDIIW

T3: Nectin-1 (human, UniProt Q15223 31-517)
T3 construct: whole, on cells; Plasma membrane, non-tethered secreted and tethered secreted forms in the library
T3 sequence (looked up): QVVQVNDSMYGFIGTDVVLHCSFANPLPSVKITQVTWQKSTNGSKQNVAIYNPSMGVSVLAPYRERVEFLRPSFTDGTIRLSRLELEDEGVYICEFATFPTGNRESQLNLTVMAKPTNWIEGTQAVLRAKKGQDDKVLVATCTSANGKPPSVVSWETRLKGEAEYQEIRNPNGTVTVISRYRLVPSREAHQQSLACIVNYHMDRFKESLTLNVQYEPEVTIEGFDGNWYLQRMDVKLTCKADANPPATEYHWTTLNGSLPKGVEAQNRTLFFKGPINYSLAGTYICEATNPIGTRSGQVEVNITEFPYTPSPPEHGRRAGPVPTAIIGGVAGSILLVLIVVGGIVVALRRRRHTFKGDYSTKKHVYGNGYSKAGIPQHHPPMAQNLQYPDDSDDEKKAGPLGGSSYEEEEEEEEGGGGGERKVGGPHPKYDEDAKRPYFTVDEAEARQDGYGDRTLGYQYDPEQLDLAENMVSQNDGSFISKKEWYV

T4: Nectin-2 (human, UniProt Q92692 32-538)
T4 construct: whole, on cells; Plasma membrane, non-tethered secreted and tethered secreted forms in the library
T4 sequence (looked up): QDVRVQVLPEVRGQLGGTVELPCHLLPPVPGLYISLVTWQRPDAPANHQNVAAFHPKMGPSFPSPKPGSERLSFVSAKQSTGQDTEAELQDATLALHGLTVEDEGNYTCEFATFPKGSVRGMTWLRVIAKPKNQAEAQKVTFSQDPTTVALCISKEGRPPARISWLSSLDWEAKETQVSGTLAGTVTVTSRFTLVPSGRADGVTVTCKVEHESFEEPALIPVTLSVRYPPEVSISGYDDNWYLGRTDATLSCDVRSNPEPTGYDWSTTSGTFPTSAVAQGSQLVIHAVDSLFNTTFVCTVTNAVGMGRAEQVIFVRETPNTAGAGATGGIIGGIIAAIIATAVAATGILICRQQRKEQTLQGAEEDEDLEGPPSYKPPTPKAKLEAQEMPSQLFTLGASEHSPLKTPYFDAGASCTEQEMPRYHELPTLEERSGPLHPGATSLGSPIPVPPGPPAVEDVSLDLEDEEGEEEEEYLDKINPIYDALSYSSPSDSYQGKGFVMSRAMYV

T5: Human Nectin-4 (human, UniProt Q96NY8 32-349, limits assumed)
T5 construct: Protein immobilised on the SPR chip; also called target protein
T5 sequence: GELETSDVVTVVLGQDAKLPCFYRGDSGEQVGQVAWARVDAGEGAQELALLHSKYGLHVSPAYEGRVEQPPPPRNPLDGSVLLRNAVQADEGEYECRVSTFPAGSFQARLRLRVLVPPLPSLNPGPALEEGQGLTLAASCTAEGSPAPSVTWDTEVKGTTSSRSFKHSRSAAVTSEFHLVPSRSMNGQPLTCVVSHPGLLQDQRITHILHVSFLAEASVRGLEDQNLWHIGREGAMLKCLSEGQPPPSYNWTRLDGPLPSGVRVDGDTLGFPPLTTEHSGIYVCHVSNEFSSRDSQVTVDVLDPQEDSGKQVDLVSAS


Experiments:
GLP2R = target: T1, GLP2R; test: cell microarray on HEK293 cells
Procedure: (§1) Initially, two pools of compounds were tested. […] To perform this assay, HEK293 cells were plated on a dish and localized spots of cells were transiently over-expressed with a single cDNA encoding for GFP and one of the 6,416 targets. Included in this library were multiple clones for the Nectin family members, including plasma membrane, non-tethered secreted, and tethered secreted forms of Nectin-1, 2, 3, and 4. Secreted protein targets were tethered to the plasma membrane to aid in detection. The molecule pools were incubated on the fixed, over-expressing cell microarrays (n=2 per protein), and binding was visualized using Alexa Fluor 647 streptavidin fluorescence.

EDN2 = target: T2, EDN2; test: cell microarray on HEK293 cells
Procedure: as §1

PAPPA = target: T6, PAPPA (human, UniProt Q13219 82-1627); test: cell microarray on HEK293 cells
T6 construct: whole, on cells; Secreted targets were tethered to the plasma membrane
Procedure: as §1

TRPV4 = target: T7, TRPV4 (human, UniProt Q9HBA0 1-871); test: cell microarray on HEK293 cells
T7 construct: whole, on cells
Procedure: as §1

CXCL12 = target: T8, CXCL12 (human, UniProt P48061 22-93); test: cell microarray on HEK293 cells
T8 construct: whole, on cells; Secreted targets were tethered to the plasma membrane
Procedure: as §1

IGFBP5 = target: T9, IGFBP5 (human, UniProt P24593 21-272); test: cell microarray on HEK293 cells
T9 construct: whole, on cells; Secreted targets were tethered to the plasma membrane
Procedure: as §1

Nectin-1 = target: T3, Nectin-1; test: cell microarray on HEK293 cells, pooled compounds
Procedure: as §1

Nectin-2 = target: T4, Nectin-2; test: cell microarray on HEK293 cells, pooled compounds
Procedure: as §1

Human Nectin-4 = target: T5, Human Nectin-4; test: Table 2B (DELFIA or SPR)

T7 sequence (Q9HBA0 whole entry): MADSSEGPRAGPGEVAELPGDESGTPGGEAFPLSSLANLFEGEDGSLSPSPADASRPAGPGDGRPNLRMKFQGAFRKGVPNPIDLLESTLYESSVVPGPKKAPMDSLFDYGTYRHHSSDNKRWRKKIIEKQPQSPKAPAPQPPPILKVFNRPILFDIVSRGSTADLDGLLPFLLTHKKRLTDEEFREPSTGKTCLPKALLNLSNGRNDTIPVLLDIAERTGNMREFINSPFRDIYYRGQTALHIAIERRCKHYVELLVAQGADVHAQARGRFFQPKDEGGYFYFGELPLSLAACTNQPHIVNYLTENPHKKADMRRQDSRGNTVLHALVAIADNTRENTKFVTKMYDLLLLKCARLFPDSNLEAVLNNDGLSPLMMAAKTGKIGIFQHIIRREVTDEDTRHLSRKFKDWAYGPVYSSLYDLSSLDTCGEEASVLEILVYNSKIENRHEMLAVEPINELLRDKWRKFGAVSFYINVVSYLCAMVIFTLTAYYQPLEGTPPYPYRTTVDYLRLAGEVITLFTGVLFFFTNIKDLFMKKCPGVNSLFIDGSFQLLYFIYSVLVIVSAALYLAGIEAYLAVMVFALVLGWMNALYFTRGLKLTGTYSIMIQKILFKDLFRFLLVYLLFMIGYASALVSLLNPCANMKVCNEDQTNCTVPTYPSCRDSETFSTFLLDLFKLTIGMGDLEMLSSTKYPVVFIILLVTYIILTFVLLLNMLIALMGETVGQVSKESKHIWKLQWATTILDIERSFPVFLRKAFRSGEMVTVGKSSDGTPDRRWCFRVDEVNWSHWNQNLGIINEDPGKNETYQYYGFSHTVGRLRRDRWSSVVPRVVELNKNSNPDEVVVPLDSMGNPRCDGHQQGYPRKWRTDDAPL
T6 sequence (Q13219 82-1627): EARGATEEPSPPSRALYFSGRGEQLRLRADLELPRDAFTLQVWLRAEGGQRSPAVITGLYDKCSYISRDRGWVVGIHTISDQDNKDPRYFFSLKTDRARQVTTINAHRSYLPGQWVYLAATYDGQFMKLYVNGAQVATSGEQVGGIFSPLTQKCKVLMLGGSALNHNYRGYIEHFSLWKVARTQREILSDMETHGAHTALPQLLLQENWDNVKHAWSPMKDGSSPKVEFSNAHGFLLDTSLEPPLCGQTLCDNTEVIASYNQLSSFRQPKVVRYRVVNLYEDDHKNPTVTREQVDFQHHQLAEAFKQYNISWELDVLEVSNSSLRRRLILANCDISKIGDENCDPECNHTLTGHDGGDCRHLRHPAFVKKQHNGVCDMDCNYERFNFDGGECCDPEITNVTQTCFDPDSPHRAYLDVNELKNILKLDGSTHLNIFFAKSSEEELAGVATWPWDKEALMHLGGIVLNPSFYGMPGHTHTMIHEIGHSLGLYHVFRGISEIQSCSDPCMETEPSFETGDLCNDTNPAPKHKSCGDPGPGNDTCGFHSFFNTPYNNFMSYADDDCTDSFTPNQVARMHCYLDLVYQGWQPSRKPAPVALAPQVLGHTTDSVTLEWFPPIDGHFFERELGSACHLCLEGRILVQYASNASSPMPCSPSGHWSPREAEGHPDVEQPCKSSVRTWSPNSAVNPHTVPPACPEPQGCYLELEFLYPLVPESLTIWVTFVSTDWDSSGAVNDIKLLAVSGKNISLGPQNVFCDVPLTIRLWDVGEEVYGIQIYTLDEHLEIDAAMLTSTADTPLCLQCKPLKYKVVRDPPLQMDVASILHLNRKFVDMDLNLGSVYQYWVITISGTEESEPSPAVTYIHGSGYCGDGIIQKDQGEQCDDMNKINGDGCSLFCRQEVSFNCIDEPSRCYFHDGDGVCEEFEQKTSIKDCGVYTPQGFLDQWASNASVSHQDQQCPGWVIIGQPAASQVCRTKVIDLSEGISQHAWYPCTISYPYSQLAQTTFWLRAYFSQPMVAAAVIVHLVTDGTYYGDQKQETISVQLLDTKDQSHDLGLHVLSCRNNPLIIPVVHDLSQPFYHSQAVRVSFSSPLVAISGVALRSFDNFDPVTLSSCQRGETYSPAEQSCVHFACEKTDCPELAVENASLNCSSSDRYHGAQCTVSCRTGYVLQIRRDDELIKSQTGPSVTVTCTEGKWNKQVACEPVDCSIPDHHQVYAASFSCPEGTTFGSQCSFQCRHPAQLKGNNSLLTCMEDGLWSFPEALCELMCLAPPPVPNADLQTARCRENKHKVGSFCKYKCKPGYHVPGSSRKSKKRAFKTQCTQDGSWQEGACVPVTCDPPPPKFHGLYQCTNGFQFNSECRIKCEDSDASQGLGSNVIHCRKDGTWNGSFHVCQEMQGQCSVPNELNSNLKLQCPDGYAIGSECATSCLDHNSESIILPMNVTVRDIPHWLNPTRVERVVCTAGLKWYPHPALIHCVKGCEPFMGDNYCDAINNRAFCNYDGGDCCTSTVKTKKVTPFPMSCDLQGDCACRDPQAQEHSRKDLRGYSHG
T8 sequence (P48061 22-93): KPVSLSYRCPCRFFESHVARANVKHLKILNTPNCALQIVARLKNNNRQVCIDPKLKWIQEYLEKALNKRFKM
T9 sequence (P24593 21-272): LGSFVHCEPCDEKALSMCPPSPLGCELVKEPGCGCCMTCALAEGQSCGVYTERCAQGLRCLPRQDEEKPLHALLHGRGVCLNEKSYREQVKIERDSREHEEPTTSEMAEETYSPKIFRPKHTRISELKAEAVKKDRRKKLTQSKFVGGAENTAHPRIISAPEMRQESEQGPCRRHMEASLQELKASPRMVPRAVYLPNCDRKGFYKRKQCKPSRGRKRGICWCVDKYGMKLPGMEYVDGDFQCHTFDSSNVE

| Binder | binding result (GLP2R) | binding result (EDN2) | binding result (PAPPA) | binding result (TRPV4) | binding result (CXCL12) | binding result (IGFBP5) | binding result (Nectin-1) | binding result (Nectin-2) | Kd (Human Nectin-4) |
| --- | --- | --- | --- | --- | --- | --- | --- | --- | --- |
| {Biotin-PEG4′}-CEYDEEFFTALARLRGGDICQYIQA[Lys(Me3)]FQYLPALCIEEILDNLGCS (designed binder, cysteine pairing not given here) [C253] | no binding (tested: 2 µg/mL) | no binding (tested: 2 µg/mL) | no binding (tested: 2 µg/mL) | no binding (tested: 2 µg/mL) | no binding (tested: 2 µg/mL) | no binding (tested: 2 µg/mL) | no binding (tested: 2 µg/mL) | no binding (tested: 2 µg/mL) | – |
| {Biotin-PEG4′}-CDYDEQFFTALKRLRGADICEYIQASFQYLPGECIEEILDNLGCS (designed binder, cysteine pairing not given here) [C208] | no binding (tested: 2 µg/mL) | no binding (tested: 2 µg/mL) | no binding (tested: 2 µg/mL) | no binding (tested: 2 µg/mL) | no binding (tested: 2 µg/mL) | no binding (tested: 2 µg/mL) | no binding (tested: 2 µg/mL) | no binding (tested: 2 µg/mL) | 1020 pM |
| {Biotin-PEG4′}-CDYDEQFFTALKRLRGGDICEYIQASFQYLPGLCIEEILDNLGCS (designed binder, cysteine pairing not given here) [C190] | no binding (tested: 2 µg/mL) | no binding (tested: 2 µg/mL) | no binding (tested: 2 µg/mL) | no binding (tested: 2 µg/mL) | no binding (tested: 2 µg/mL) | no binding (tested: 2 µg/mL) | no binding (tested: 2 µg/mL) | no binding (tested: 2 µg/mL) | 710 pM |
| {Biotin-PEG4′}-CDYDEQFFTALARLRGADICEYIQASFQYLPGECIEEILDNLGCS (designed binder, cysteine pairing not given here) [C247] | no binding (tested: 2 µg/mL) | no binding (tested: 2 µg/mL) | no binding (tested: 2 µg/mL) | no binding (tested: 2 µg/mL) | no binding (tested: 2 µg/mL) | no binding (tested: 2 µg/mL) | no binding (tested: 2 µg/mL) | no binding (tested: 2 µg/mL) | – |
| {Biotin-PEG4′}-CEYDEQFFTALKRLRGDDICDYIQASFQYLPGLCIEEILDNLGCS (designed binder, cysteine pairing not given here) [C197] | no binding (tested: 2 µg/mL) | no binding (tested: 2 µg/mL) | no binding (tested: 2 µg/mL) | no binding (tested: 2 µg/mL) | no binding (tested: 2 µg/mL) | no binding (tested: 2 µg/mL) | no binding (tested: 2 µg/mL) | no binding (tested: 2 µg/mL) | 970 pM |
